The source of these data is US20100273722A1 (YALE UNIVERSITY, published 2010).

Changes are numbered by the printed parent chain. No end group written: not given here.

Data set [1] deals with the molecule itself. The data set can be described thus: sedimentation equilibrium AUC, self-association (dimer), 25 C.
Data set [2] deals with the molecule itself. The data set can be described thus: sedimentation equilibrium AUC, self-association, monomer-n-mer fit, 25 C.
Data set [3] concerns the molecule itself. The experiment in a line: sedimentation equilibrium AUC, self-association (tetramer), 25 C.
For data set [4], the target named is T1, human Lyn (residues 62-122) SH3 domain-GST fusion protein (human, UniProt P07948 62-122).
T1 construct: range 62-122; also called Lyn SH3
T1 sequence (P07948 62-122): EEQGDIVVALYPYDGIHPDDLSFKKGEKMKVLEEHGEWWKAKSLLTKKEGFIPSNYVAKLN
The data set can be described thus: fluorescence polarization, 50 nM labeled peptide, SH3-GST titrated.

For data set [5], the target named is T2, human Lck (residues 62-128) SH3 domain-GST fusion (human, UniProt P06239 62-128).
T2 construct: range 62-128; also called Lck SH3
T2 sequence (P06239 62-128): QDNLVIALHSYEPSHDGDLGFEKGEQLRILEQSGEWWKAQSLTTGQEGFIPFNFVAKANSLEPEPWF
Described as above.

The target in data set [6] is T3, human Fyn (residues 81-142) SH3 domain-GST fusion protein (human, UniProt P06241 81-142).
T3 construct: range 81-142; also called Fyn SH3
T3 sequence (P06241 81-142): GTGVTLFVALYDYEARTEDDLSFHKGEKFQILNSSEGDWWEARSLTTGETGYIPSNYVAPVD
The description is as above.

The target in data set [7] is T4, human Hck (residues 77-137 of full-length kinase) SH3 domain-GST fusion protein (human, UniProt P08631 77-137).
T4 construct: range 77-137; also called Hck SH3
T4 sequence (P08631 77-137): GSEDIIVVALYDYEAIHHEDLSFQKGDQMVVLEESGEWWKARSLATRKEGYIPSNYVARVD
The data set is described as above.

The target in data set [8] is T1, human Lyn (residues 62-122) SH3 …. The experiment in a line: fluorescence polarization, 50 nM labeled peptide, SH3-GST titrated; data above 50 micromolar target excluded from the fit.
In data set [9] the target is T4, human Hck (residues 77-137 of …). The data set is described as above.
Data set [10] deals with the molecule itself. The data set can be described thus: AUC, self-association, monomer/dimer/tetramer model, dimer term, 25 C; dimer term of the monomer/dimer/tetramer model, 25 C.

B1: avian pancreatic polypeptide (aPP) (peptide)
chain: GPSQPTYPGDDAPVEDLIRFYDNLQQYLNVVTRHRY
modifications: ends and bridges not checked
notes: Bought from American Peptide Company; entries are for its self-association (dimer); also called wt aPP
In turn, B1 returned a Kd in data set [1] of 4.1 µM. In [2], the “lnKA (n = 2)” value is 12.4.

B2: aPP^Y7AQ25R (peptide)
chain: GPSQPTAPGDDAPVEDLIRFYDNLRQYLNVVTRHRY-NH2
notes: Synthetic aPP variant; entries are for its self-association (tetramer)
In [3], B2 returned a Kd of 0.18 pM. Besides, the “lnKA (n = 4)” value in data set [2] worked out at 29.3.

B3: aPP^Y7AP13VV14P (peptide)
chain: GPSQPTAPGDDAVPEDLIRFYDNLQQYLNVVTRHRY-NH2
notes: Synthetic aPP variant; entries are for its self-association (tetramer); also called aPP^Y7AP13W14P
In the case of B3, the Kd in data set [3] turned out to be 0.75 pM. The “lnKA (n = 4)” value in data set [2] came out at 27.9.

B4: aPP^Y7A (peptide)
chain: GPSQPTAPGDDAPVEDLIRFYDNLQQYLNVVTRHRY-NH2
notes: as for B2
Molecule B4 showed a Kd in data set [3] of 3.9 pM. For the same molecule, in data set [2], the “lnKA (n = 4)” value is 26.3.

B5: aPP^Y21A (peptide)
chain: GPSQPTYPGDDAPVEDLIRFADNLQQYLNVVTRHRY-NH2
notes: Synthetic aPP variant; entries are for its self-association (dimer)
Molecule B5 returned a Kd in data set [1] of 1.3 µM. The “lnKA (n = 2)” value in [2] was 13.6.

B6: aPP^Y7AT6E (peptide)
chain: GPSQPEAPGDDAPVEDLIRFYDNLQQYLNVVTRHRY-NH2
notes: entries are for its self-association (tetramer); also called aPP^Y7AAT6E
In [3], B6 returned a Kd of 0.2 pM. In addition, the “lnKA (n = 4)” value in data set [2] turned out to be 29.3.

B7: pancreatic peptide YY (PYY) (peptide)
chain: not shown
modifications: C-terminal carboxamide
notes: Synthetic; entries are for its self-association
With B7, the Kd in data set [1] came out at 830 µM. The “lnKA (n = 2)” value in [2] turned out to be 7.09.

B8: PP2^Flu (designed binder)
chain: APPLPPRNRGDDAPVEDLIRFYDNLQQYLNVVTRHRYC
modifications: ends and bridges not checked; also: fluorescently labeled, site and dye not given here
notes: also called PP2 (fluorescently labeled)
Take B8: the Kd in data set [4] was determined as 3.7 µM; in data set [5], 2700 nM; in [6], 14 µM; in [7] it was 1300 nM.

B9: PP1^Flu (designed binder)
chain: B8 chain with R9P
modifications: ends and bridges not checked; also: fluorescently labeled, site and dye not given here
notes: also called PP1 (fluorescently labeled)
With B9, the Kd in data set [4] was determined as 4.9 µM; in [5], 40000 nM; in [6], 25 µM; in [7] it was 3800 nM.

B10: PP3^Flu (designed binder)
chain: B8 chain with G10P, D11R
modifications: ends and bridges not checked; also: fluorescently labeled, site and dye not given here
notes: also called PP3 (fluorescently labeled)
On to B10, for which the Kd in [5] was 1430 nM; in data set [6], 2.1 µM; in data set [8], 1800 nM; in data set [9] it was 880 nM.

B11: aPP^Y7AP13SV14P (peptide)
chain: GPSQPTAPGDDASPEDLIRFYDNLQQYLNVVTRHRY-NH2
notes: Synthetic aPP variant with the proline switch; entries are for its self-association (monomer/dimer/tetramer)
Consider B11, for which the Kd in data set [10] is 530 µM.

B12: aPP^F20A (peptide)
chain: GPSQPTYPGDDAPVEDLIRAYDNLQQYLNVVTRHRY-NH2
notes: as for B2
In data set [3], B12 showed a Kd of 76 pM. Also, the “lnKA (n = 4)” value in [2] was found to be 23.3.
